From PMC10246013 (bioRxiv, 2023)
Blank lines part the entries; values can stand above or below the molecule they belong to.

What was measured:
[1] = biological target: dynein-dynactin-BicDR1 complex assembled with wtDyn (wtDDR) (human | pig | mouse) (UniProt Q14204); experiment: three-color TIRF comigration with processive complexes
[2] = biological target: WT dynein-GFP (human) (UniProt Q14204); experiment: real-time TIRF imaging of the initiation of motility
[3] = biological target: wild-type human dynein (wtDyn) (human) (UniProt Q14204); experiment: single-molecule colocalization
[4] = biological target: the molecule itself; experiment: mass photometry

Chain of dynein-dynactin-BicDR1 complex assembled with wtDyn (wtDDR) (human | pig | mouse) (Q14204 whole entry, looked up, one chain of several): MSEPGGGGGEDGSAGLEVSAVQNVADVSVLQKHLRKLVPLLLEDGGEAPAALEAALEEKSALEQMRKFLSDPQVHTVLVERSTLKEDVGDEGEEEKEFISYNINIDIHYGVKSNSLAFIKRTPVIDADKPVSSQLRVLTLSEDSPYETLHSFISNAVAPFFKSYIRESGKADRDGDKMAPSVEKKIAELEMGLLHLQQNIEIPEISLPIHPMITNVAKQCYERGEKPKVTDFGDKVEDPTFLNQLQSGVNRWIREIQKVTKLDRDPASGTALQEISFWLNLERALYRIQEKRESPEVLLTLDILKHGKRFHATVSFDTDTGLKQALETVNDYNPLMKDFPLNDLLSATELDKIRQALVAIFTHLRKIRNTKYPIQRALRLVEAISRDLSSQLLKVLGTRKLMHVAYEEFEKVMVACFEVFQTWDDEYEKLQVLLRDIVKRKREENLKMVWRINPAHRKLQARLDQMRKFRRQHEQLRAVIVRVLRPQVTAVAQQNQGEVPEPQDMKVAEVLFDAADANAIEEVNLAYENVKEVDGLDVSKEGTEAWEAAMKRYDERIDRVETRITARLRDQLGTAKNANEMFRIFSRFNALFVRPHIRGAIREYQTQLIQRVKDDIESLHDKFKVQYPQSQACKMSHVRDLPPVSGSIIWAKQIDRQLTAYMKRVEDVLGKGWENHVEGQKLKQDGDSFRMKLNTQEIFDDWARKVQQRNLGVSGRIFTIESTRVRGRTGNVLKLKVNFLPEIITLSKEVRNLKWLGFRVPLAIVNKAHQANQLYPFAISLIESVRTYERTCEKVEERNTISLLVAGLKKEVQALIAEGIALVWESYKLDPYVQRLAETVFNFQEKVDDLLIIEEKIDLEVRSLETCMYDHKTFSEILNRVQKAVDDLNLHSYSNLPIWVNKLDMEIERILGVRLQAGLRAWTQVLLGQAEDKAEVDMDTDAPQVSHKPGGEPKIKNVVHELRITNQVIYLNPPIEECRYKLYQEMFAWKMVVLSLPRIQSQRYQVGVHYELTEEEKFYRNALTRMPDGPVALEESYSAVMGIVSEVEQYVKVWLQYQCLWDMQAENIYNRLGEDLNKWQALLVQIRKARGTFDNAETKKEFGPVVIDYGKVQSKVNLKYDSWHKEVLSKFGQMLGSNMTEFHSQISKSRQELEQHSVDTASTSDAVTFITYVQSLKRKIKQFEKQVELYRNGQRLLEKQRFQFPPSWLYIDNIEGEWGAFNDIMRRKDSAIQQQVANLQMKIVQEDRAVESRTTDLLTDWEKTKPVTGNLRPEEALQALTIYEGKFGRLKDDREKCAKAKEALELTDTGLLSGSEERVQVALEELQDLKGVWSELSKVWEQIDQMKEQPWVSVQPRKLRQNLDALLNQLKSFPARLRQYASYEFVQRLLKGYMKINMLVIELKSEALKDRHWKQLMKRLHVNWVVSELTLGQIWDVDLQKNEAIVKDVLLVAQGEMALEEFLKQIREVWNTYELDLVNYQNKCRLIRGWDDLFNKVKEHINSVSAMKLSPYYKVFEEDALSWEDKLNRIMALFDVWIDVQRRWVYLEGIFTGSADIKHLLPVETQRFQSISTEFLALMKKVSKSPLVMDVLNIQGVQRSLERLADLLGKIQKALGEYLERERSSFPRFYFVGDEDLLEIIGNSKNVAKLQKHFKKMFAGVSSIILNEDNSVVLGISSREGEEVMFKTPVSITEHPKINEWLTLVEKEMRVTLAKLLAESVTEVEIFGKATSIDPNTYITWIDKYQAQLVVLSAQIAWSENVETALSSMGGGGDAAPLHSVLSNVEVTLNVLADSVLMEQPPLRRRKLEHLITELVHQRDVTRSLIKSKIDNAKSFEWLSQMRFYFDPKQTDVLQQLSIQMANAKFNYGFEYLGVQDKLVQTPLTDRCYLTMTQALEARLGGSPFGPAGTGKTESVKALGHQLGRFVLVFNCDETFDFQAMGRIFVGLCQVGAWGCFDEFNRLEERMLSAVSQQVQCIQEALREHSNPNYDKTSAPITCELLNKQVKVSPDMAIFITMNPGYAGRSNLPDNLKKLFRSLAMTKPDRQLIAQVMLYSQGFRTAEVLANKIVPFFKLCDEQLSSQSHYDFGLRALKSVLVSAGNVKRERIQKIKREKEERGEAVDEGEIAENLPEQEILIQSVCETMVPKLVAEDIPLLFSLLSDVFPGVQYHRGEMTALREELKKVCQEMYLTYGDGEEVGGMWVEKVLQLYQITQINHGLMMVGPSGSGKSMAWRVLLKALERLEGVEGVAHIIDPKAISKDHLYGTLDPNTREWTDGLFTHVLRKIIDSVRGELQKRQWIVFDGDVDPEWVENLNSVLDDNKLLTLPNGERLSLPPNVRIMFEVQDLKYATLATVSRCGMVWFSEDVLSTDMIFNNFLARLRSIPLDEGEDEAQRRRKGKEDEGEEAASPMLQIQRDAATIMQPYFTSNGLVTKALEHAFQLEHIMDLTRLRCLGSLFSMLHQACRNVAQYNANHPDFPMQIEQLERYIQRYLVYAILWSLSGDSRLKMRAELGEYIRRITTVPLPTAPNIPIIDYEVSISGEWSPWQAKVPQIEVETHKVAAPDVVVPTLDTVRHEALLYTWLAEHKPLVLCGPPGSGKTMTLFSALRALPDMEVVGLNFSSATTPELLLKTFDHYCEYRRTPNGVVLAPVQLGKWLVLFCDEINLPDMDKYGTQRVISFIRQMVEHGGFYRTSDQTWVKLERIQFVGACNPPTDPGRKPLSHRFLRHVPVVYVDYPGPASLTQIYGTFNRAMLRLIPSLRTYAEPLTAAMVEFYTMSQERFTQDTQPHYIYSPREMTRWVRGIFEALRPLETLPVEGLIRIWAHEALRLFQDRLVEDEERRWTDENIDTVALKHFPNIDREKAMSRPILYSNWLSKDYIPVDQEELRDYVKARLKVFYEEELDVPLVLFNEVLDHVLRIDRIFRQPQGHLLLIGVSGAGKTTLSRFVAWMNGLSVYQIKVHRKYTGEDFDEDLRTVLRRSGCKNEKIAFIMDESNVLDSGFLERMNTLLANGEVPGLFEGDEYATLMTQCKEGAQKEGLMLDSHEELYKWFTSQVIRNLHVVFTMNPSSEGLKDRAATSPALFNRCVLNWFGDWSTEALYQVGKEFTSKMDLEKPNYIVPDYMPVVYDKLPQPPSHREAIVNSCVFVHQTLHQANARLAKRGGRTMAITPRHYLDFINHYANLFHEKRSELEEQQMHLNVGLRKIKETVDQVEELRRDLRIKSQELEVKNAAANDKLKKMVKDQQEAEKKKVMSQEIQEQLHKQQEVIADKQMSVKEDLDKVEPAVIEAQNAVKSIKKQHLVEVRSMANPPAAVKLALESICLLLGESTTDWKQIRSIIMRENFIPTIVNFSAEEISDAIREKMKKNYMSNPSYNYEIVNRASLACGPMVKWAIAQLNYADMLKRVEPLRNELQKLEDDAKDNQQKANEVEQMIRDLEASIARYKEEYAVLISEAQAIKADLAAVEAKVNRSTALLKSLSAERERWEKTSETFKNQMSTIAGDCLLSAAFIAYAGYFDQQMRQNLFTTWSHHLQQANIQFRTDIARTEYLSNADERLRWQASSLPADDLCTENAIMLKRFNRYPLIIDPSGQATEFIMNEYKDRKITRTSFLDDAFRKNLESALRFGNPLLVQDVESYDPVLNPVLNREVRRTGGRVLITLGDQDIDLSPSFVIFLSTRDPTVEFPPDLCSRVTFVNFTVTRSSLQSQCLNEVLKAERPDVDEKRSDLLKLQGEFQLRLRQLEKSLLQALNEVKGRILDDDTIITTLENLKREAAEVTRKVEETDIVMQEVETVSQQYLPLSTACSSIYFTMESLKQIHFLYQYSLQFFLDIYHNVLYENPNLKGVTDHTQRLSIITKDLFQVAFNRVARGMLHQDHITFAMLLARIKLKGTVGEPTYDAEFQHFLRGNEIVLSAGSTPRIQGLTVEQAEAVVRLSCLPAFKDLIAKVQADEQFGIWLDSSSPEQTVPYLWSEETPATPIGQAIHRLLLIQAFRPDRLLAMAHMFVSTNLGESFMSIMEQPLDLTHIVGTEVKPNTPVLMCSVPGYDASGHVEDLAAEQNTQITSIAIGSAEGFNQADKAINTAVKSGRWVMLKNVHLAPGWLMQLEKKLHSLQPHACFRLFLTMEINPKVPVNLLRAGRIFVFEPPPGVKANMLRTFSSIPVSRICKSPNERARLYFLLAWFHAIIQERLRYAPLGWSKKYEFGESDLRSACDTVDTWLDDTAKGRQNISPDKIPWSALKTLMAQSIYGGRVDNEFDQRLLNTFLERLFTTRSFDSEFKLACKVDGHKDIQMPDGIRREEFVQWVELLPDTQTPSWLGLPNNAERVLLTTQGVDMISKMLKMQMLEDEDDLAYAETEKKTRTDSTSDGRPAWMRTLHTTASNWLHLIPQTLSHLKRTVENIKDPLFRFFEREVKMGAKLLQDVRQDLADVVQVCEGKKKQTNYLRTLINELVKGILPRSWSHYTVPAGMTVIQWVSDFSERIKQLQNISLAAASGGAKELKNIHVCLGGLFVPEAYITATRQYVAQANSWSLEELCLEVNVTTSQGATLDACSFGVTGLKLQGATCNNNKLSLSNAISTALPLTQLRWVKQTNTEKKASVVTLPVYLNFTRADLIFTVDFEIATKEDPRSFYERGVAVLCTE

B1: Nde1^1–190 (N-terminus of human Nde1) (domain or fragment)
chain: MEDSGKTFSSEEEEANYWKDLAMTYKQRAENTQEELREFQEGSREYEAELETQLQQIETRNRDLLSENNRLRMELETIKEKFEVQHSEGYRQISALEDDLAQTKAIKDQLQKYIRELEQANDDLERAKRATIMSLEDFEQRLNQAIERNAFLESELDEKENLLESVQRLKDEARDLRQELAVQQKQEKPR
modifications: LD555 dye in the size exclusion experiment
- stoichiometry N [4]: 2

B2: human Nde1 (full-length) (natural protein)
chain: MEDSGKTFSSEEEEANYWKDLAMTYKQRAENTQEELREFQEGSREYEAELETQLQQIETRNRDLLSENNRLRMELETIKEKFEVQHSEGYRQISALEDDLAQTKAIKDQLQKYIRELEQANDDLERAKRATIMSLEDFEQRLNQAIERNAFLESELDEKENLLESVQRLKDEARDLRQELAVQQKQEKPRTPMPSSVEAERTDTAVQATGSVPSTPIAHRGPSSSLNTPGSFRRGLDDSTGGTPLTPAARISALNIVGDLLRKVGALESKLASCRNLVYDQSPNRTGGPASGRSSKNRDGGERRPSSTSVPLGDKGLDTSCRWLSKSTTRSSSSC
modifications: LD655 or LD555 dye in the fluorescence assays
- stoichiometry N [4]: 2

Now from value to molecule:

- percent of DDR complexes co-migrating with Lis1 [1]: 70%
Molecule: human Lis1 (full-length) (from UniProt P43034 1-410) (natural protein)

- percent of dynein-colocalized Nde1 immediately released, with Lis1 [2]: 50%
- percent reduction of Nde1 colocalization to dynein [3]: 37%
Molecule: pig brain dynactin (from UniProt A0A287B8J2 1-1281) (complex)
